Substitutions are numbered along the chain they refer to.
B1: toripalimab Fab H.A105Y (Fab, V domains shown)
VH: QGQLVQSGAEVKKPGASVKVSCKASGYTFTDYEMHWVRQAPIHGLEWIGVIESETGGTAYNQKFKGRVTITADKSTSTAYMELSSLRSEDTAVYYCAREGITTVYTTYYWYFDVWGQGTTVTVSS
VL: DVVMTQSPLSLPVTLGQPASISCRSSQSIVHSNGNTYLEWYLQKPGQSPQLLIYKVSNRFSGVPDRFSGSGSGTDFTLKISRVEAEDVGVYYCFQGSHVPLTFGQGTKLEIK
notes: heavy chain of Sm3 with this change; numbers count from the chain's first residue; as the light chain of Sm3; source: Brevibacillus, culture supernatant (ammonium sulfate precipitate); not shown: 6xHis, C-terminal, kept; 6xHN, C-terminal, kept
B2: toripalimab Fab H.F112Y (Fab, V domains shown)
VH: B1 VH with Y105A, F112Y
VL: B1 VL
notes: as for B1
B3: toripalimab Fab L.Q27Y (Fab, V domains shown)
VH: B1 VH with Y105A
VL: B1 VL with Q27Y
notes: as the heavy chain of Sm3; light chain of Sm3 with this change; numbers count from the chain's first residue; source: Brevibacillus, culture supernatant (ammonium sulfate precipitate); not shown: 6xHis, C-terminal, kept; 6xHN, C-terminal, kept
B4: toripalimab Fab H.Y109A (Fab, V domains shown)
VH: B1 VH with Y105A, Y109A
VL: B1 VL
notes: as for B1
B5: toripalimab Fab H.V114Y (Fab, V domains shown)
VH: B1 VH with Y105A, V114Y
VL: B1 VL
notes: as for B1
B6: toripalimab Fab L.V30Y (Fab, V domains shown)
VH: B1 VH with Y105A
VL: B1 VL with V30Y
notes: as for B3
B7: toripalimab Fab H.V114A (Fab, V domains shown)
VH: B1 VH with Y105A, V114A
VL: B1 VL
notes: as for B1
B8: toripalimab Fab L.S28A (Fab, V domains shown)
VH: B1 VH with Y105A
VL: B1 VL with S28A
notes: as for B3
B9: toripalimab Fab L.S26Y (Fab, V domains shown)
VH: B1 VH with Y105A
VL: B1 VL with S26Y
notes: as for B3
B10: toripalimab Fab H.T106Y (Fab, V domains shown)
VH: B1 VH with Y105A, T106Y
VL: B1 VL
notes: as for B1
B11: toripalimab Fab L.I29Y (Fab, V domains shown)
VH: B1 VH with Y105A
VL: B1 VL with I29Y
notes: as for B3
B12: toripalimab Fab L.R24A (Fab, V domains shown)
VH: B1 VH with Y105A
VL: B1 VL with R24A
notes: as for B3
B13: toripalimab Fab L.I29A (Fab, V domains shown)
VH: B1 VH with Y105A
VL: B1 VL with I29A
notes: as for B3
B14: toripalimab Fab L.S25Y (Fab, V domains shown)
VH: B1 VH with Y105A
VL: B1 VL with S25Y
notes: as for B3
B15: toripalimab Fab H.T106A (Fab, V domains shown)
VH: B1 VH with Y105A, T106A
VL: B1 VL
notes: as for B1
B16: toripalimab Fab L.S25A (Fab, V domains shown)
VH: B1 VH with Y105A
VL: B1 VL with S25A
notes: as for B3
B17: toripalimab Fab L.S26A (Fab, V domains shown)
VH: B1 VH with Y105A
VL: B1 VL with S26A
notes: as for B3
B18: toripalimab Fab L.S28Y (Fab, V domains shown)
VH: B1 VH with Y105A
VL: B1 VL with S28Y
notes: as for B3
B19: toripalimab Fab H.M34Y (Fab, V domains shown)
VH: B1 VH with M34Y, Y105A
VL: B1 VL
notes: as for B1
B20: toripalimab Fab L.Q27A (Fab, V domains shown)
VH: B1 VH with Y105A
VL: B1 VL with Q27A
notes: as for B3
B21: toripalimab Fab H.T107Y (Fab, V domains shown)
VH: B1 VH with Y105A, T107Y
VL: B1 VL
notes: as for B1
B22: toripalimab Fab L.V30A (Fab, V domains shown)
VH: B1 VH with Y105A
VL: B1 VL with V30A
notes: as for B3
B23: toripalimab Fab H.M34A (Fab, V domains shown)
VH: B1 VH with M34A, Y105A
VL: B1 VL
notes: as for B1
B24: toripalimab Fab L.R24Y (Fab, V domains shown)
VH: B1 VH with Y105A
VL: B1 VL with R24Y
notes: as for B3
B25: toripalimab Fab H.T107A (Fab, V domains shown)
VH: B1 VH with Y105A, T107A
VL: B1 VL
notes: as for B1
B26: toripalimab Fab H.W110Y (Fab, V domains shown)
VH: B1 VH with Y105A, W110Y
VL: B1 VL
notes: as for B1

Each binder was assayed against T1, human programmed cell death protein 1 (hPD-1) C93S (aa 24-167) (Homo sapiens, UniProt Q15116, C93S) (assay: SPR; Carterra LSA; Fab from the ammonium sulfate precipitate of the culture supernatant immobilised on a NiHC200M chip; hPD-1 (1-1024 nM) or mPD-1-Fc (4-1024 nM) as analyte, fourfold dilution series, no regeneration; HBS-EP pH 7.4, 25 °C; medians over the spots of a construct, KD = koff/kon). Settings: one partner purified.
T1 construct: made as a fusion with a TEV site and human Fc; the Fc was cut off with TEV protease; source: Expi293F, purified (Protein A, TEV cleavage of Fc, SEC; monomer fractions); not shown: Fc (human), C-terminal, cleaved
T1 sequence (Q15116 24-167 C93S): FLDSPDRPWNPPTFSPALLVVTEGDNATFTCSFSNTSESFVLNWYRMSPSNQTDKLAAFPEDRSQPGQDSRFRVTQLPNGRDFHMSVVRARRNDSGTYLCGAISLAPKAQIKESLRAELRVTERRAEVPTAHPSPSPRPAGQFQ
Method in brief: (§1)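 Human PD-1 (1–1024 nM) or mouse PD-1-Fc (4–1024 nM), in fourfold series, was flowed without regeneration over Fabs captured in duplicate on a NiHC200M chip (Carterra LSA, 25 °C), using 10 min association and 5 min dissociation. The Fabs had been recovered from Brevibacillus culture supernatants by ammonium sulfate precipitation and redissolved in HBS-EP. For binding constants, KD was defined as koff/kon from per-construct medians, with rates fitted by the kdka model under slow- or fast-dissociation settings (best fit) and unconfirmed binders set to kon 10^3 […] and koff 10^−2 s^−1.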
For B1, the Kd was under 0.492 nM, the koff was under 1e-05 s⁻¹ and the kon was 20300 M⁻¹ s⁻¹.
Work on B2 yielded a Kd of under 0.731 nM, a koff of under 1e-05 s⁻¹ and a kon of 13700 M⁻¹ s⁻¹.
B3 gave a Kd of under 0.342 nM, a koff of under 1e-05 s⁻¹ and a kon of 29200 M⁻¹ s⁻¹.
With B4 the Kd was 0.608 nM, the koff was 1.41e-05 s⁻¹ and the kon was 23200 M⁻¹ s⁻¹.
B5 gave a Kd of 1.23 nM, a koff of 2.39e-05 s⁻¹ and a kon of 19400 M⁻¹ s⁻¹.
With B6 the Kd was 0.91 nM, the koff was 1.6e-05 s⁻¹ and the kon was 17600 M⁻¹ s⁻¹.
B7 gave a Kd of under 1.5 nM, a koff of under 1e-05 s⁻¹ and a kon of 6670 M⁻¹ s⁻¹.
B8 gave a Kd of under 0.632 nM, a koff of under 1e-05 s⁻¹ and a kon of 15800 M⁻¹ s⁻¹.
With B9 the Kd was under 0.573 nM, the koff was under 1e-05 s⁻¹ and the kon was 17500 M⁻¹ s⁻¹.
B10 gave a Kd of 0.833 nM, a koff of 1.75e-05 s⁻¹ and a kon of 21000 M⁻¹ s⁻¹.
B11 was tested, and the Kd was 30.4 nM, the koff was 0.000378 s⁻¹ and the kon was 12400 M⁻¹ s⁻¹.
B12 gave a Kd of under 0.696 nM, a koff of under 1e-05 s⁻¹ and a kon of 14400 M⁻¹ s⁻¹.
Work on B13 yielded a Kd of under 0.466 nM, a koff of under 1e-05 s⁻¹ and a kon of 21500 M⁻¹ s⁻¹.
In the case of B14, the Kd is reported as 1.93 nM, the koff is reported as 1.18e-05 s⁻¹ and the kon is reported as 6090 M⁻¹ s⁻¹.
B15 showed a Kd of 0.743 nM, a koff of 1.56e-05 s⁻¹ and a kon of 21000 M⁻¹ s⁻¹.
B16 showed a Kd of under 0.503 nM, a koff of under 1e-05 s⁻¹ and a kon of 19900 M⁻¹ s⁻¹.
With B17 the Kd was 0.802 nM, the koff was 1.95e-05 s⁻¹ and the kon was 24300 M⁻¹ s⁻¹.
Work on B18 yielded a Kd of under 0.792 nM, a koff of under 1e-05 s⁻¹ and a kon of 12600 M⁻¹ s⁻¹.
B19 gave a Kd of under 0.414 nM, a koff of under 1e-05 s⁻¹ and a kon of 24200 M⁻¹ s⁻¹.
B20 was tested, and the Kd was under 0.831 nM, the koff was under 1e-05 s⁻¹ and the kon was 12000 M⁻¹ s⁻¹.
B21 gave a Kd of under 0.315 nM, a koff of under 1e-05 s⁻¹ and a kon of 31700 M⁻¹ s⁻¹.
With B22 the Kd was 2.21 nM, the koff was 6.23e-05 s⁻¹ and the kon was 28200 M⁻¹ s⁻¹.
In the case of B23, the Kd is reported as 0.968 nM, the koff is reported as 3.28e-05 s⁻¹ and the kon is reported as 33900 M⁻¹ s⁻¹.
B24 gave a Kd of under 1.44 nM, a koff of under 1e-05 s⁻¹ and a kon of 6930 M⁻¹ s⁻¹.
Work on B25 yielded a Kd of under 1.53 nM, a koff of under 1e-05 s⁻¹ and a kon of 6520 M⁻¹ s⁻¹.
Work on B26 yielded a Kd of under 1.51 nM, a koff of under 1e-05 s⁻¹ and a kon of 6610 M⁻¹ s⁻¹.

The binders below were run against T2, mouse programmed cell death protein 1 Fc fusion protein (mPD-1-Fc), mPD-1 C60S (aa 25-167) (Mus musculus, UniProt Q02242, stabilised) in the same assay as above. Settings: one partner purified.
T2 construct: not cleaved; source: Expi293F, purified (Protein A, SEC; dimeric fraction); not shown: Fc (human), C-terminal, kept
Method in brief: as §1
In the case of B1, the Kd is reported as 95.5 nM, the koff is reported as 0.00349 s⁻¹ and the kon is reported as 36500 M⁻¹ s⁻¹.
B2 showed a Kd of 59.7 nM, a koff of 0.00308 s⁻¹ and a kon of 51700 M⁻¹ s⁻¹.
B3 was tested, and the Kd was 216 nM, the koff was 0.0122 s⁻¹ and the kon was 56500 M⁻¹ s⁻¹.
In the case of B4, the Kd is reported as 49.7 nM, the koff is reported as 0.00179 s⁻¹ and the kon is reported as 36000 M⁻¹ s⁻¹.
B5 was tested, and the Kd was 235 nM, the koff was 0.00887 s⁻¹ and the kon was 37800 M⁻¹ s⁻¹.
Work on B6 yielded a Kd of 173 nM, a koff of 0.00719 s⁻¹ and a kon of 41500 M⁻¹ s⁻¹.
With B7 the Kd was 201 nM, the koff was 0.00764 s⁻¹ and the kon was 38100 M⁻¹ s⁻¹.
With B8 the Kd was 96.3 nM, the koff was 0.00303 s⁻¹ and the kon was 31400 M⁻¹ s⁻¹.
B9 showed a Kd of 152 nM, a koff of 0.00675 s⁻¹ and a kon of 44500 M⁻¹ s⁻¹.
B10 showed a Kd of 140 nM, a koff of 0.00601 s⁻¹ and a kon of 43000 M⁻¹ s⁻¹.
In the case of B11, the Kd is reported as 80.6 nM, the koff is reported as 0.00575 s⁻¹ and the kon is reported as 71400 M⁻¹ s⁻¹.
B12 was tested, and the Kd was 198 nM, the koff was 0.0079 s⁻¹ and the kon was 39900 M⁻¹ s⁻¹.
Work on B13 yielded a Kd of 64 nM, a koff of 0.00268 s⁻¹ and a kon of 41800 M⁻¹ s⁻¹.
For B14, the Kd was 125 nM, the koff was 0.00412 s⁻¹ and the kon was 32900 M⁻¹ s⁻¹.
Work on B15 yielded a Kd of 107 nM, a koff of 0.00423 s⁻¹ and a kon of 39700 M⁻¹ s⁻¹.
Binder B16 has a Kd of 65.2 nM, a koff of 0.00369 s⁻¹ and a kon of 56600 M⁻¹ s⁻¹.
Binder B17 has a Kd of 75 nM, a koff of 0.00379 s⁻¹ and a kon of 50500 M⁻¹ s⁻¹.
In the case of B18, the Kd is reported as 137 nM, the koff is reported as 0.00438 s⁻¹ and the kon is reported as 31900 M⁻¹ s⁻¹.
Binder B19 has a Kd of 164 nM, a koff of 0.00793 s⁻¹ and a kon of 48500 M⁻¹ s⁻¹.
Work on B20 yielded a Kd of 219 nM, a koff of 0.00876 s⁻¹ and a kon of 40100 M⁻¹ s⁻¹.
For B21, the Kd was 137 nM, the koff was 0.00432 s⁻¹ and the kon was 31600 M⁻¹ s⁻¹.
B22 showed a Kd of 255 nM, a koff of 0.00954 s⁻¹ and a kon of 37400 M⁻¹ s⁻¹.
B23 showed a Kd of 153 nM, a koff of 0.0068 s⁻¹ and a kon of 44300 M⁻¹ s⁻¹.
B24 showed a Kd of 133 nM, a koff of 0.0047 s⁻¹ and a kon of 35400 M⁻¹ s⁻¹.
With B25 the Kd was 232 nM, the koff was 0.00703 s⁻¹ and the kon was 30300 M⁻¹ s⁻¹.
In the case of B26, the Kd is reported as 166 nM, the koff is reported as 0.00571 s⁻¹ and the kon is reported as 34500 M⁻¹ s⁻¹.

Reference: article PMC10663500, “High-throughput analysis system of interaction kinetics for data-driven antibody design” (Scientific Reports, 2023)
